Measured values taken from paper PMC11870394.

Target: RSV prefusion F (PR-DM) (respiratory syncytial virus A) (UniProt P03420)
Assay: cryo-EM structure

Substance: RSV prefusion F (PR-DM) (from UniProt P03420) (complex)
- stoichiometry N: 3
